System: MOP7/human ARNT (transfected) (Mus musculus)
Test: cell_activity
Details: COS-1 luciferase; enhanced by hypoxia or CoCl2

HRE reporter (six HRE enhancer elements)
activity: 11.7 fold

Source: patent US20060084798
